Assay results: patent US20060171884A1 (Amgen, published 2006)

B1: HAI-1 (soluble, as titrated in the competition assay) (other, UniProt O43278 36-465, looked up)
chain: GPPPAPPGLPAGADCLNSFTAGVPGFVLDTNASVSNGATFLESPTVRRGWDCVRACCTTQNCNLALVELQPDRGEDAIAACFLINCLYEQNFVCKFAPREGFINYLTREVYRSYRQLRTQGFGGSGIPKAWAGIDLKVQPQEPLVLKDVENTDWRLLRGDTDVRVERKDPNQVELWGLKEGTYLFQLTVTSSDHPEDTANVTVTVLSTKQTEDYCLASNKVGRCRGSFPRWYYDPTEQICKSFVYGGCLGNKNNYLREEECILACRGVQGGPLRGSSGAQATFPQGPSMERRHPVCSGTCQPTQFRCSNGCCIDSFLECDDTPNCPDASDEAACEKYTSGFDELQRIHFPSDKGHCVDLPDTGLCKESIPRWYYNPFSEHCARFTYGGCYGNKNNFEEEQQCLESCRGISKKDVFGLRREIPIPSTGSVE

Key:
[1] = target: Rhesus Macaque MTSP-1 on 4MBr5 cells (rhesus macaque) (UniProt H9ZCT3); assay: FACS on 4MBr5 monkey lung epithelial cells, antibody at 1 µg/ml
[2] = target: native human Matriptase on cells (human) (UniProt Q9Y5Y6); assay: FACS on 22Rv1 cells, antibody at 1 µg/ml
[3] = target: T1, Matriptase (soluble enzyme, form not stated) (human, UniProt Q9Y5Y6 615-855, limits assumed); assay: competition ELISA: 125 ng/ml biotinylated MTSP1 pre-incubated 1 hour with titrated HAI-1, then transferred to a sc95/96 coated plate, bound MTSP detected with SA-pod; competitor: plate-coated sc95/96
T1 construct: also called Matriptase-1; MT-SP1
T1 sequence: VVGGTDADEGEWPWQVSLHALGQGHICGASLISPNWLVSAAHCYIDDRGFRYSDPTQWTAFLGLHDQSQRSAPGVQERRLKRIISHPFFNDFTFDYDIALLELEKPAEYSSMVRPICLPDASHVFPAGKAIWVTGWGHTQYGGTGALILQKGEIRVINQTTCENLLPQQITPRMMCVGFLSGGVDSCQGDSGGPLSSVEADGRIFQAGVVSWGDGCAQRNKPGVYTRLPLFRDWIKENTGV

Row | Molecule | geomean (geomean fluorescence) [1] | geomean (geomean fluorescence) [2] | IC50 (read off the curve) [3]
1 | IgG1 irrelevant control antibody | 5 | 5 | –
2 | B1 | – | – | ~40 nM
